Series [1] relates to T1, DNA polymerase 3173 (uncultured hot spring virus (Octopus Spring)).
T1 sequence: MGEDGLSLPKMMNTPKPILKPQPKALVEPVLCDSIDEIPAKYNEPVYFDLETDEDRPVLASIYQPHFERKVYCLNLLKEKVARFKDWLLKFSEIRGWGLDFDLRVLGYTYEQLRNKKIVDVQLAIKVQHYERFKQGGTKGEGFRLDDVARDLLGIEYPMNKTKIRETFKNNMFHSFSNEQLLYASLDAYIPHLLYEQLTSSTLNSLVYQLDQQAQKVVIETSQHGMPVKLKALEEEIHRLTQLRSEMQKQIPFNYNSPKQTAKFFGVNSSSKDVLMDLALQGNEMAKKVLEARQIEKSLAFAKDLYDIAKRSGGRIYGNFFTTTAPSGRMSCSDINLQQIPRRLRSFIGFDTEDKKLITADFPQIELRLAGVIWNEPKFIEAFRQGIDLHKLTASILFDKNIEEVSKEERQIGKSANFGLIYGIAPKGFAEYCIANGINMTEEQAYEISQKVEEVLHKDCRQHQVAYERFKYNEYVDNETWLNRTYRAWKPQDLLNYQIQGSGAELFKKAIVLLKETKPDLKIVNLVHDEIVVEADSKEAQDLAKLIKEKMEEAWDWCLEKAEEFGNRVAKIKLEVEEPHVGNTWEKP
As to conditions: reverse transcription, 60 C 20 min, MgCl2 and MnCl2.

Series [2] addresses MMLV reverse transcriptase (Moloney murine leukemia virus) (UniProt P03355). As to conditions: reverse transcription, manufacturer's conditions.
For the next series, the target named is Tth DNA polymerase (UniProt P52028). The settings on record: reverse transcription, manufacturer's conditions.
UniProt P52028, sequence (P52028 whole entry): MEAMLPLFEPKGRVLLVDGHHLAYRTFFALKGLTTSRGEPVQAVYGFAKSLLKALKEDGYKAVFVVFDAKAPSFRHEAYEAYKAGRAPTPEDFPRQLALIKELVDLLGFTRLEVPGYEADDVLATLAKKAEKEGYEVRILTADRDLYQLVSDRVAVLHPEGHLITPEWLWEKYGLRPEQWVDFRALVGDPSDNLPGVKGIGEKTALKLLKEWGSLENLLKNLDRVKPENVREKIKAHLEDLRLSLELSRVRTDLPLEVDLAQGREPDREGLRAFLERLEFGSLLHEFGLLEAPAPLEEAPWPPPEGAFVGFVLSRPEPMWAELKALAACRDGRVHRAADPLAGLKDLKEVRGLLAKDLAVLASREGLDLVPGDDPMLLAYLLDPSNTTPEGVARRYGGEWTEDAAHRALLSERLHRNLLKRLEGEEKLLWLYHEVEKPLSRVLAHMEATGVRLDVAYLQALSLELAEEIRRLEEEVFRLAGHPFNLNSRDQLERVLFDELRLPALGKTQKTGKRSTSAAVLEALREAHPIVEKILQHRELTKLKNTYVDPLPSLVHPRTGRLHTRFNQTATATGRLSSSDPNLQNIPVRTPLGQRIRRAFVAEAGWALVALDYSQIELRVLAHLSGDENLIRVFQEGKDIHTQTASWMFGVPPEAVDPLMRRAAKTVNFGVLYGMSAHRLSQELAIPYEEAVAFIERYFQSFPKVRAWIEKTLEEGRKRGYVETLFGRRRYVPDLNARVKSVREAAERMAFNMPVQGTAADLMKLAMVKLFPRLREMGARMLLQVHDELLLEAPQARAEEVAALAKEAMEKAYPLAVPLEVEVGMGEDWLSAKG
Series [3] concerns T1, DNA polymerase 3173 (uncultured hot spring virus (Octopus Spring)). The settings on record: Km for primed M13 DNA; 70 C; dNTPs in excess.

Consider poly rA:oligo dT, for which the values for the activity (in series [1]; in series [2]; in the series with Tth DNA polymerase) were 1.04 nmol dTTP, 1.11 nmol dTTP and 0.802 nmol dTTP, respectively.

Take primed single-stranded M13 DNA: the K half in series [3] came to 5.3 nM.
